Experimental data: patent US20260265379A1
Blank lines part the entries; values can stand above or below the binder they belong to.

Biological target: BTN3A expressed at the cell surface (human), O00481
Test: cell-based or functional assay

Sequence of BTN3A expressed at the cell surface (human), O00481 (O00481 30-513): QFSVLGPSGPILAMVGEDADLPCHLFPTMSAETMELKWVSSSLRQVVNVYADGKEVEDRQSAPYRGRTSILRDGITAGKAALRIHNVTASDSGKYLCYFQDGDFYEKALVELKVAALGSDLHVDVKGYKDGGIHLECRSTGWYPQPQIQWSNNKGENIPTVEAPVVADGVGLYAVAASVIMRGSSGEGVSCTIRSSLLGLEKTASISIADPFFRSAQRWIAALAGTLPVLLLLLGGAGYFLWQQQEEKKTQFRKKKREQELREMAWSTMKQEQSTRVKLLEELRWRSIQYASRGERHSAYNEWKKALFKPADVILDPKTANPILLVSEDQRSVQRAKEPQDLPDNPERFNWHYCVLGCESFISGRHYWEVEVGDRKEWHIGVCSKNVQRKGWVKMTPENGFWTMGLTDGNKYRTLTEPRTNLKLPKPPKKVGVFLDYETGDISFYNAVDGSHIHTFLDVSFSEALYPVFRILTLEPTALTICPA

- Jurkat-Vy9Vo2 TCR MOP activation at 0.5 nM (fold-change to medium): 2.9
- Jurkat-Vy9Vo2 TCR MOP activation at 5 nM (fold-change to medium): 1.4
B1: bsAb026 (bispecific antibody)
heavy: QVQLVQSGAEVKKPGASVKLSCKASGYIFTRYYMYWVKQRPGQGLEWIGEINPNNGGTKFNEKFKNRATLTVDKSISTAYMELSRLRSDDTAVYYCSREDDYDGTPFAMDYWGQGTLVTVSSASTKGPSVFPLAPSSKSTSGGTAALGCLVKDYFPEPVTVSWNSGALTSGVHTFPAVLQSSGLYSLSSVVTVPSSSLGTQTYICNVNHKPSNTKVDKRVEPKSCDKTHTCPPCPAPEFEGGPSVFLFPPKPKDTLMISRTPEVTCVVVDVSHEDPEVKFNWYVDGVEVHNAKTKPREEQYNSTYRVVSVLTVLHQDWLNGKEYKCKVSNKALPASIEKTISKAKGQPREPQVYTLPPSREEMTKNQVSLTCLVKGFYPSDIAVEWESNGQPENNYKTTPPVLDSDGSFFLYSKLTVDKSRWQQGNVFSCSVMHEALHNHYTQKSLSLSPGGGGGSGGGGSGGGGSGGGGSQVQLVQSGVEVKKPGASVKVSCKASGYTFTNYYMYWVRQAPGQGLEWMGGINPSNGGTNFNEKFKNRVTLTTDSSTTTAYMELKSLQFDDTAVYYCARRDYRFDMGFDYWGQGTTVTVSSASTKGPSVFPLAPSSKSTSGGTAALGCLVKDYFPEPVTVSWNSGALTSGVHTFPAVLQSSGLYSLSSVVTVPSSSLGTQTYICNVNHKPSNTKVDKKVEPKSCDKTHTGGSSGSGSGSTGTSSSGTGTSAGTTGTSASTSGSGSGGGGGSGGGGSAGGEIVLTQSPATLSLSPGERATLSCRASKGVSTSGYSYLHWYQQKPGQAPRLLIYLASYLESGVPARFSGSGSGTDFTLTISSLEPEDFAVYYCQHSRDLPLTFGGGTKVEIKRTVAAPSVFIFPPSDEQLKSGTASVVCLLNNFYPREAKVQWKVDNALQSGNSQESVTEQDSKDSTYSLSSTLTLSKADYEKHKVYACEVTHQGLSSPVTKSFNRGEC
light: not shown

- Jurkat-Vy9Vo2 TCR MOP activation at 0.5 nM (fold-change to medium): 7.8
- Jurkat-Vy9Vo2 TCR MOP activation at 5 nM (fold-change to medium): 7.1
B2: bsAb033 (bispecific antibody, not shown: small tags and cut ends)
heavy (part 1 of 2): QVQLVQSGAEVKKPGASVKLSCKASGYIFTRYYMYWVKQRPGQGLEWIGEINPNNGGTKFNEKFKNRATLTVDKSISTAYMELSRLRSDDTAVYYCSREDDYDGTPFAMDYWGQGTLVTVSS
heavy (part 2 of 2): GGGGSGGGGSGGGGSGGGGSQVQLVQSGVEVKKPGASVKVSCKASGYTFTNYYMYWVRQAPGQGLEWMGGINPSNGGTNFNEKFKNRVTLTTDSSTTTAYMELKSLQFDDTAVYYCARRDYRFDMGFDYWGQGTTVTVSSGGGGSGGGGSGGGGSGGGGSEIVLTQSPATLSLSPGERATLSCRASKGVSTSGYSYLHWYQQKPGQAPRLLIYLASYLESGVPARFSGSGSGTDFTLTISSLEPEDFAVYYCQHSRDLPLTFGGGTKVEIK
heavy: B2 heavy (part 1 of 2)
light: not shown

- Jurkat-Vy9Vo2 TCR MOP activation at 0.5 nM (fold-change to medium): 5.9
- Jurkat-Vy9Vo2 TCR MOP activation at 5 nM (fold-change to medium): 6.2
B5: bsAb049 (bispecific antibody, not shown: small tags and cut ends)
heavy 1: QVQLVQSGVEVKKPGASVKVSCKASGYTFTNYYMYWVRQAPGQGLEWMGGINPSNGGTNFNEKFKNRVTLTTDSSTTTAYMELKSLQFDDTAVYYCARRDYRFDMGFDYWGQGTTVTVSSGGGGSGGGGSGGGGSGGGGSEIVLTQSPATLSLSPGERATLSCRASKGVSTSGYSYLHWYQQKPGQAPRLLIYLASYLESGVPARFSGSGSGTDFTLTISSLEPEDFAVYYCQHSRDLPLTFGGGTKVEIKGGGGSGGGGSGGGGSGGGGSQVQLVQSGAEVKKPGASVKLSCKASGYIFTRYYMYWVKQRPGQGLEWIGEINPNNGGTKFNEKFKNRATLTVDKSISTAYMELSRLRSDDTAVYYCSREDDYDGTPFAMDYWGQGTLVTVSS
heavy 2: B2 heavy (part 1 of 2)
light: not shown

- Jurkat-Vy9Vo2 TCR MOP activation at 0.5 nM (fold-change to medium): 4.3
- Jurkat-Vy9Vo2 TCR MOP activation at 5 nM (fold-change to medium): 5.8
B9: bsAb062 (bispecific antibody)
heavy: QVQLVQSGAEVKKPGASVKLSCKASGYIFTRYYMYWVKQRPGQGLEWIGEINPNNGGTKFNEKFKNRATLTVDKSISTAYMELSRLRSDDTAVYYCSREDDYDGTPFAMDYWGQGTLVTVSSASTKGPSVFPLAPSSKSTSGGTAALGCLVKDYFPEPVTVSWNSGALTSGVHTFPAVLQSSGLYSLSSVVTVPSSSLGTQTYICNVNHKPSNTKVDKRVEPKSCDKTHTCPPCPAPEFEGGPSVFLFPPKPKDTLMISRTPEVTCVVVDVSHEDPEVKFNWYVDGVEVHNAKTKPREEQYNSTYRVVSVLTVLHQDWLNGKEYKCKVSNKALPASIEKTISKAKGQPREPQVYTLPPSREEMTKNQVSLTCLVKGFYPSDIAVEWESNGQPENNYKTTPPVLDSDGSFFLYSKLTVDKSRWQQGNVFSCSVMHEALHNHYTQKSLSLSPG
light: not shown

- Jurkat-Vy9Vo2 TCR MOP activation at 0.5 nM (fold-change to medium): 1.4
- Jurkat-Vy9Vo2 TCR MOP activation at 5 nM (fold-change to medium): 1.6
B12: bsAb068 (bispecific antibody)
heavy: QVQLVQSGVEVKKPGASVKVSCKASGYTFTNYYMYWVRQAPGQGLEWMGGINPSNGGTNFNEKFKNRVTLTTDSSTTTAYMELKSLQFDDTAVYYCARRDYRFDMGFDYWGQGTTVTVSSASTKGPSVFPLAPSSKSTSGGTAALGCLVKDYFPEPVTVSWNSGALTSGVHTFPAVLQSSGLYSLSSVVTVPSSSLGTQTYICNVNHKPSNTKVDKRVEPKSCDKTHTCPPCPAPEFEGGPSVFLFPPKPKDTLMISRTPEVTCVVVDVSHEDPEVKFNWYVDGVEVHNAKTKPREEQYNSTYRVVSVLTVLHQDWLNGKEYKCKVSNKALPASIEKTISKAKGQPREPQVYTLPPSREEMTKNQVSLTCLVKGFYPSDIAVEWESNGQPENNYKTTPPVLDSDGSFFLYSKLTVDKSRWQQGNVFSCSVMHEALHNHYTQKSLSLSPG
light: not shown

Second part, the binder before the results:

B3: bsAb038 (bispecific antibody, not shown: small tags and cut ends)
heavy (part 1 of 2): B2 heavy (part 1 of 2)
heavy (part 2 of 2): GGGGSGGGGSGGGGSGGGGSEIVLTQSPATLSLSPGERATLSCRASKGVSTSGYSYLHWYQQKPGQAPRLLIYLASYLESGVPARFSGSGSGTDFTLTISSLEPEDFAVYYCQHSRDLPLTFGGGTKVEIKGGGGSGGGGSGGGGSGGGGSQVQLVQSGVEVKKPGASVKVSCKASGYTFTNYYMYWVRQAPGQGLEWMGGINPSNGGTNFNEKFKNRVTLTTDSSTTTAYMELKSLQFDDTAVYYCARRDYRFDMGFDYWGQGTTVTVSS
heavy: B2 heavy (part 1 of 2)
light: not shown
- Jurkat-Vy9Vo2 TCR MOP activation at 0.5 nM (fold-change to medium): 8.5
- Jurkat-Vy9Vo2 TCR MOP activation at 5 nM (fold-change to medium): 7.2

B4: bsAb047 (bispecific antibody, not shown: small tags and cut ends)
heavy 1: EIVLTQSPATLSLSPGERATLSCRASKGVSTSGYSYLHWYQQKPGQAPRLLIYLASYLESGVPARFSGSGSGTDFTLTISSLEPEDFAVYYCQHSRDLPLTFGGGTKVEIKGGGGSGGGGSGGGGSGGGGSQVQLVQSGVEVKKPGASVKVSCKASGYTFTNYYMYWVRQAPGQGLEWMGGINPSNGGTNFNEKFKNRVTLTTDSSTTTAYMELKSLQFDDTAVYYCARRDYRFDMGFDYWGQGTTVTVSSGGGGSGGGGSGGGGSGGGGSQVQLVQSGAEVKKPGASVKLSCKASGYIFTRYYMYWVKQRPGQGLEWIGEINPNNGGTKFNEKFKNRATLTVDKSISTAYMELSRLRSDDTAVYYCSREDDYDGTPFAMDYWGQGTLVTVSS
heavy 2: B2 heavy (part 1 of 2)
light: not shown
- Jurkat-Vy9Vo2 TCR MOP activation at 0.5 nM (fold-change to medium): 4
- Jurkat-Vy9Vo2 TCR MOP activation at 5 nM (fold-change to medium): 5.8

B6: bsAb052 (bispecific antibody, not shown: small tags and cut ends; a dimerising Fc or GST)
heavy (part 1 of 2): B2 heavy (part 1 of 2)
heavy (part 2 of 2): B2 heavy (part 2 of 2)
heavy: B2 heavy (part 2 of 2)
light: not shown
- Jurkat-Vy9Vo2 TCR MOP activation at 0.5 nM (fold-change to medium): 4.2
- Jurkat-Vy9Vo2 TCR MOP activation at 5 nM (fold-change to medium): 4.5

B7: bsAb056 (bispecific antibody, not shown: a dimerising Fc or GST; small tags and cut ends)
heavy 1: B2 heavy (part 2 of 2)
heavy 2: B2 heavy (part 1 of 2)
light: not shown
- Jurkat-Vy9Vo2 TCR MOP activation at 0.5 nM (fold-change to medium): 7
- Jurkat-Vy9Vo2 TCR MOP activation at 5 nM (fold-change to medium): 10

B8: bsAb061 (bispecific antibody)
heavy: B9 heavy
light: not shown
- Jurkat-Vy9Vo2 TCR MOP activation at 0.5 nM (fold-change to medium): 3.7
- Jurkat-Vy9Vo2 TCR MOP activation at 5 nM (fold-change to medium): 5.4

B10: bsAb031 (bispecific antibody)
heavy: not shown
light: EIVLTQSPATLSLSPGERATLSCRASKGVSTSGYSYLHWYQQKPGQAPRLLIYLASYLESGVPARFSGSGSGTDFTLTISSLEPEDFAVYYCQHSRDLPLTFGGGTKVEIKRTVAAPSVFIFPPSDEQLKSGTASVVCLLNNFYPREAKVQWKVDNALQSGNSQESVTEQDSKDSTYSLSSTLTLSKADYEKHKVYACEVTHQGLSSPVTKSFNRGEC
- Jurkat-Vy9Vo2 TCR MOP activation at 0.5 nM (fold-change to medium): 1.8
- Jurkat-Vy9Vo2 TCR MOP activation at 5 nM (fold-change to medium): 2.2

B11: bsAb032 (bispecific antibody)
heavy: not shown
light: B10 light
- Jurkat-Vy9Vo2 TCR MOP activation at 0.5 nM (fold-change to medium): 0.9
- Jurkat-Vy9Vo2 TCR MOP activation at 5 nM (fold-change to medium): 1
